US7109317

Target: endogenous calcineurin (human) (UniProt P63098)
Assay: cell-based or functional assay

Sequence of endogenous calcineurin (human) (P63098 2-170): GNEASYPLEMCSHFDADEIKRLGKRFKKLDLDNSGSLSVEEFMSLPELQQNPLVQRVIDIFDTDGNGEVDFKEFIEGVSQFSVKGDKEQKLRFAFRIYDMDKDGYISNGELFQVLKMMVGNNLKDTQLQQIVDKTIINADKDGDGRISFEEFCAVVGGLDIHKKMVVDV
Sequence of FKBP12 (P62942 2-108 limits assumed): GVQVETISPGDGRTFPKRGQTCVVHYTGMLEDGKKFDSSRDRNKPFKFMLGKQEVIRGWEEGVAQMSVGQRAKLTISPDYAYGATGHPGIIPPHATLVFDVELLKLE

suppression of PMA/ionomycin-induced activation of an NFAT-SEAP reporter, C40-phenyl-FK506 against FK506: 30 fold
Substance: FKBP12 (from UniProt P62942 2-108)
